# The supplement of paper PMC12764529
# ± gives the half width of the 95% confidence interval.
# Experiment: folding stability dG unfold from trypsin proteolysis; higher = more stable
# In short: (§1)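 Designed mini-proteins (under 80 residues, no cysteine) in a PA-tagged cDNA display construct were digested with trypsin and chymotrypsin. Each protease was used at 11 concentrations (threefold dilutions) plus a no-protease condition, followed by sequencing. K50 was inferred by Bayesian fitting of sequencing counts, and unfolding free energy was derived against a sequence-predicted unfolded-state K50 and a shared folded-state K50, per protease or combined. Only designs with AlphaFold2 dimer inter-PAE above 15 were kept.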
row,Sequence,folding stability dG unfold
1,SAGSMLLIKITITFKDPNGNLLKTIPIEKEADPNDPEAIEKAKEEAEKLAEELLPEDELAEVKAEVLLLSAG [r5_793_JUSTAS],1.73 ± 0.11 kcal/mol
2,SAGGFEFEFTNPDGKKIKVEIERHPEEGYIMLKIQYGGKPVETFPPGDEFEIPPDGIDAVIMFRLPPESAGG [r13_958_TrROS],2.88 ± 0.15 kcal/mol
3,SAGGSAGGSAGGSVTISYNPETGTVVISSPKNKKIITINAENYTPEEILEKAKEAGIDLSAGGSAGGSAGGS [r4_49_TrMRF],0.613 ± 0.035 kcal/mol
4,SAGGSAGGSAGGMTYVTVTLKEGDTEVTLTFPLEKLPEVVPEPGIEILEVETSPLDPELLSAGGSAGGSAGG [r17_204_JUSTAS],1.34 ± 0.081 kcal/mol
5,SAVEIEFWFPGGMSVEEFVNEFSKILPGLRDVDIGVEPYPETDMWKVTATIRIVPPPSPEDQEEMQKNKSAG [r14_645_TrROS],1.38 ± 0.07 kcal/mol
6,SAGGSAGGWITLDLIKELAREAMNQAQLNGMENVPIEIRWPDGWRIKIEINMNKVEVDVQPWNDSAGGSAGG [r6_270_TrROS],1.9 ± 0.11 kcal/mol
7,SAGGSAGGSAGLEALKKALEALPPGEERELEIEVEVDGKLYRFRIRVEKTEDGEYKATIELESAGGSAGGSA [r18_493_TrROS_Hall],4.56 ± 0.34 kcal/mol
8,SAGGSAGGSAGGGKLAIRVEIEPVRTETRLRADGSLETRTEFRVRIEIRPVGNPDDPRNNSAGGSAGGSAGG [r7_523_TrMRF],2.89 ± 0.059 kcal/mol
9,SAGGSAMKKIKIEVEKKGDEYIVRIKIKNPDGKIEEIEIKLKDEEEAKKLAEELLKEGKIDEIELESAGGSA [r15_575_TrROS_Hall],2.7 ± 0.18 kcal/mol
10,SAMKLSPELLKKLGLSKEDIKEIEIEVEPVPELSEEDLKKKNVTVYKVKIKIKVNGKEYEVELLFVEPKSAG [r14_483_TrROS_Hall],1.83 ± 0.07 kcal/mol
11,SAGGKKIVIFIGPPEQMDRMQEQHPDEPVIPIPRDALQDPEPAKNLIKELQEKGKDVEIYLFKDFKPSAGGS [r8_376_TrROS],-0.176 ± 0.31 kcal/mol
12,SAGGSAGGSAGGMWYIRITYDNGREIWIPIGDPITIKHKDGKPVQIKEVEVYPLPPGQISAGGSAGGSAGGS [r10_20_TrROS],2.04 ± 0.064 kcal/mol
13,SAGGSAGGSGPELRPPDVPSTTVPLKVSPEEAKEILKELLGLPEDVEVPFGSIDPATGVITLVSAGGSAGGS [r12_815_JUSTAS],1.25 ± 0.091 kcal/mol
14,SRIKISIFRPGKIIPEIPIKVDSVEEAVEKVLEYIRKFPPNAPYYIMIEVEHTDPANGQKQEGTVHIPIKSA [r9_245_TrROS],2.22 ± 0.059 kcal/mol
15,SAGGGSSSTTLTLREVTEVIVIPVPPEEEELAEELAKKYESQGIKVELERLPDGTWKLTLTYYRGVSLSAGG [r13_702_JUSTAS],1.15 ± 0.11 kcal/mol
16,MRIEIRVEKVEDGFYKVTIRLEETGETLELVVPKSLEEAKAAAEELLRELFPDVKVTEIRVERVPLPEEDLS [r1_80_TrROS_Hall],3.03 ± 0.077 kcal/mol

row,Sequence,folding stability dG unfold
1,SAGGSAPPPIKIKFKYPNGRPMELEFNPENGNYEIKQPDGEKEEVPMENIKEIRIPPGIKDVEIVPSAGGSA [r15_1043_TrROS],-0.579 ± 0.27 kcal/mol
2,SAGGSAGGSAGGPITSIDTSGPVITVTATTPGGSVTMDVPPDLTLEEVEALLKANPELLNSAGGSAGGSAGG [r7_373_JUSTAS],1.41 ± 0.072 kcal/mol
3,GEERTFSLWVKTKSPQEARQLQEKIKDILRGPGYEVKIDDVEVSPNGWMKVNITMRPGMPQDRLRDALRKIS [r1_485_TrROS],3.93 ± 0.082 kcal/mol
4,SAGGSAGGSAGGMLVDPSTNTVTINLPPNTTLTFNYPDSTLTVTVPANETLTVTFPLTSSAGGSAGGSAGGS [r10_464_JUSTAS],2.19 ± 0.075 kcal/mol
5,SMPLTPEEVEEVVEAVAKELEEETGEEVKAEVFYDPETGRFYAVIELPDGRRVRIEIDPETGEVRVEVEASA [r9_9_TrMRF],3.8 ± 0.13 kcal/mol
6,DRIEIDVEMYDGYFYKIEIRWPGNGEPRELMFPGSLSEAKDFAEDLIQEQHPGAPVDEIDVEPVPMPPGDFS [r1_80_TrROS],0.683 ± 0.2 kcal/mol
7,SAGGSAMVTPEERVEAALAYIRGKYGFPLSATPAQLREAGLPVRVELTVTDADGRPLATVTLEIPGSAGGSA [r15_391_TrMRF],1.39 ± 0.037 kcal/mol
8,SAGGMISEEDIEAAAKAIVEAAKNGDPERIEEEYARLEEALEEAEKEGDPERRGRLAKAVEAAKKLLGSAGG [r13_137_TrMRF],1.43 ± 0.02 kcal/mol
9,SAGGSAGGWIEINILVPLKPGQTPSELADEIAQEFQNQHGWEIKIDDVYPTDNYVWHKIEITPPSAGGSAGG [r6_639_TrROS],0.864 ± 0.031 kcal/mol
10,SAGGSAGGSAVAEEFKKKFPDKTVTVEAFTFERTVTHPDGGSSTERVTVLNVTVSSSDDPGSAGGSAGGSAG [r3_358_TrMRF],1.35 ± 0.071 kcal/mol
11,SAGGSAGGSAGGKYKILKIEKYKLPNGGYYYKALVYEEENGEWKEIYAKANSAKNFKFESAGGSAGGSAGGS [r10_326_TrMRF],0.828 ± 0.049 kcal/mol
12,SAGWIIKIYFPDKKKEIMISRFPDGQWWMVQVHDKKGEPRQTIPAGMPVDELLKDFPDAKVEVYPFEPPSAG [r5_314_TrROS],1.55 ± 0.039 kcal/mol
13,SAGGSAGGSMIFFPNITKEEFEEIFRKKGYKVKRYPSTNVIEVTGKDGKPIKAVVIPVSPEEFSAGGSAGGS [r12_211_TrMRF],0.677 ± 0.058 kcal/mol
14,SAGGSAGGSAMITSDDLEKLLKKLGIDPKKLGPEKLAKIFKELYPDAIITADPEGKAYIYPSAGGSAGGSAG [r3_375_TrMRF],1.72 ± 0.07 kcal/mol
15,SAGGSADGRVVELPVRIRLYRRDPVSGRWELVEEFEVPVRVPAPKDAVVGLRIERRGDRFRIVVGVSAGGSA [r15_537_TrMRF],2.74 ± 0.08 kcal/mol

# Experiment: folding stability dG unfold from chymotrypsin proteolysis; higher = more stable
# In short: as §1
row,Sequence,folding stability dG unfold
1,SAGSMLLIKITITFKDPNGNLLKTIPIEKEADPNDPEAIEKAKEEAEKLAEELLPEDELAEVKAEVLLLSAG [r5_793_JUSTAS],2.36 ± 0.097 kcal/mol
2,SAGGFEFEFTNPDGKKIKVEIERHPEEGYIMLKIQYGGKPVETFPPGDEFEIPPDGIDAVIMFRLPPESAGG [r13_958_TrROS],3.22 ± 0.12 kcal/mol
3,SAGGSAGGSAGGSVTISYNPETGTVVISSPKNKKIITINAENYTPEEILEKAKEAGIDLSAGGSAGGSAGGS [r4_49_TrMRF],2.02 ± 0.056 kcal/mol
4,SAGGSAGGSAGGMTYVTVTLKEGDTEVTLTFPLEKLPEVVPEPGIEILEVETSPLDPELLSAGGSAGGSAGG [r17_204_JUSTAS],0.737 ± 0.14 kcal/mol
5,SAVEIEFWFPGGMSVEEFVNEFSKILPGLRDVDIGVEPYPETDMWKVTATIRIVPPPSPEDQEEMQKNKSAG [r14_645_TrROS],1.7 ± 0.051 kcal/mol
6,SAGGSAGGWITLDLIKELAREAMNQAQLNGMENVPIEIRWPDGWRIKIEINMNKVEVDVQPWNDSAGGSAGG [r6_270_TrROS],2.57 ± 0.079 kcal/mol
7,SAGGSAGGSAGLEALKKALEALPPGEERELEIEVEVDGKLYRFRIRVEKTEDGEYKATIELESAGGSAGGSA [r18_493_TrROS_Hall],4.88 ± 0.084 kcal/mol
8,SAGGSAGGSAGGGKLAIRVEIEPVRTETRLRADGSLETRTEFRVRIEIRPVGNPDDPRNNSAGGSAGGSAGG [r7_523_TrMRF],4.36 ± 0.056 kcal/mol
9,SAGGSAMKKIKIEVEKKGDEYIVRIKIKNPDGKIEEIEIKLKDEEEAKKLAEELLKEGKIDEIELESAGGSA [r15_575_TrROS_Hall],2.29 ± 0.077 kcal/mol
10,SAMKLSPELLKKLGLSKEDIKEIEIEVEPVPELSEEDLKKKNVTVYKVKIKIKVNGKEYEVELLFVEPKSAG [r14_483_TrROS_Hall],2.49 ± 0.18 kcal/mol
11,SAGGKKIVIFIGPPEQMDRMQEQHPDEPVIPIPRDALQDPEPAKNLIKELQEKGKDVEIYLFKDFKPSAGGS [r8_376_TrROS],-0.287 ± 0.4 kcal/mol
12,SAGGSAGGSAGGMWYIRITYDNGREIWIPIGDPITIKHKDGKPVQIKEVEVYPLPPGQISAGGSAGGSAGGS [r10_20_TrROS],2.72 ± 0.032 kcal/mol
13,SAGGSAGGSGPELRPPDVPSTTVPLKVSPEEAKEILKELLGLPEDVEVPFGSIDPATGVITLVSAGGSAGGS [r12_815_JUSTAS],0.881 ± 0.042 kcal/mol
14,SRIKISIFRPGKIIPEIPIKVDSVEEAVEKVLEYIRKFPPNAPYYIMIEVEHTDPANGQKQEGTVHIPIKSA [r9_245_TrROS],4 ± 0.048 kcal/mol
15,SAGGGSSSTTLTLREVTEVIVIPVPPEEEELAEELAKKYESQGIKVELERLPDGTWKLTLTYYRGVSLSAGG [r13_702_JUSTAS],0.827 ± 0.15 kcal/mol
